A short description of data set [1]: syncytia formation in 293T-EmGFP cells, 36 h. The following applies: glycan lost; control: wild type.
Data set [2] can be described thus: Western blot of 293T-EmGFP lysates. The following applies: glycan lost; control: wild type. (In general: In western blotting, separated proteins are transferred to a membrane and probed.)
Data set [3] is described as follows: co-transfection of WT and mutant, 293T-EmGFP syncytia. The following applies: glycan lost; control: WT syncytin-2 plus empty vector.

As for syncytin-2: N146Q, the “other: fusogenic activity, other: fusion score (−, +, ++)” value (shortened to “other: fusogenic activity, other”) in data set [1] is given as “no change”. Also, in data set [2], the expression_or_secretion entry is listed as “no change”.

On to syncytin-2: N241Q, for which the “other: fusogenic activity, other” value in data set [1] was “no change”. The expression_or_secretion entry in data set [2] was “no change”.

On to syncytin-2: N247Q, for which the “other: fusogenic activity, other” value in data set [1] is listed as “no change”. The expression_or_secretion entry in data set [2] was “no change”.

For syncytin-2: N332Q, in data set [1], the “other: fusogenic activity, other” value is reported as “increases”. The expression_or_secretion entry in data set [2] was “no change”.

On to syncytin-2: N220Q, for which the “other: fusogenic activity, other” value in data set [1] is on record as “no change”. Further, the expression_or_secretion entry in data set [2] is “no change”.

As to syncytin-2: N443Q, the “other: fusogenic activity of co-expressed wild type” value in data set [3] was “decreases”. Further, in data set [2], the expression_or_secretion result was “no change”.

With syncytin-2: N177Q, the “other: fusogenic activity, other” value in data set [1] is given as “no change”. In addition, the expression_or_secretion entry in data set [2] is listed as “no change”.

With syncytin-2: N133Q, the “other: fusogenic activity of co-expressed wild type” value in data set [3] is listed as “decreases”. For the same substance, the expression_or_secretion result in data set [2] is recorded as “no change”.

The values are drawn from PMC4853038.
